Test results from US20240368259A1 (ONENA MEDICINES S L, published 2024).
One block for each binder: values may come before it.

B1: SCBT anti-lefty antibody (Santa Cruz Biotechnology, catalog number sc-365845, mAb D6) (antibody, mouse IgG1, kappa)
heavy: QVQLQQSGAELVRPGASVKLSCKALGYTFADYEMHWVRQTPVHGLEWTGSIHPGSGGTAYDQRFKGKATLTADKSSSTAYMELSSLTSEDSAVYYCTFYDLDYWGQGTTLTVSSAKTTPPSVYPLAPGSAAQTNSMVTLGCLVKGYFPEPVTVTWNSGSLSSGVHTFPAVLQSDLYTLSSSVTVPSSTWPSETVTCNVAHPASSTKVDKKIVPRDCGCKPCICTVPEVSSVFIFPPKPKDVLTITLTPKVTCVVVDISKDDPEVQFSWFVDDVEVHTAQTQPREEQFNSTFRSVSELPIMHQDWLNGKEFKCRVNSAAFPAPIEKTISKTKGRPKAPQVYTIPPPKEQMAKDKVSLTCMITDFFPEDITVEWQWNGQPAENYKNTQPIMDTDGSYFVYSKLNVQKSNWEAGNTFTCSVLHEGLHNHHTEKSLSHSPGK
light: DILMTQAAPSISVTPGESVSISCRSSESLLHSNGNTYLYWFLQRPGQSPQLLIYRKSNLASGVPDRFSGSGSGTAFTLRISRVEAEDVGVYYCMQQLEYPLTFGGGTKLELKRADAAPTVSIFPPSSEQLTSGGASVVCFLNNFYPKDINVKWKIDGSERQNGVLNSWTDQDSKDSTYSMSSTLTLTKDEYERHNSYTCEATHKTSTSPIVKSFNRNEC
notes: The ELISA protocol prints the catalog number as sc-36584, the proliferation protocols as sc-365845; also called SCBT antibody; SCBT Ab

Key:
[1] = target: T1, 1189 IMM (human LEFTY1-Rabbit Fc fusion protein) (human); experiment: ELISA, plate coated with 5 ug/ml protein, 5 ug/ml primary antibody, absorbance at 450 nm
T1 construct: also called Lefty IMM; Lefty Imm
T1 chain: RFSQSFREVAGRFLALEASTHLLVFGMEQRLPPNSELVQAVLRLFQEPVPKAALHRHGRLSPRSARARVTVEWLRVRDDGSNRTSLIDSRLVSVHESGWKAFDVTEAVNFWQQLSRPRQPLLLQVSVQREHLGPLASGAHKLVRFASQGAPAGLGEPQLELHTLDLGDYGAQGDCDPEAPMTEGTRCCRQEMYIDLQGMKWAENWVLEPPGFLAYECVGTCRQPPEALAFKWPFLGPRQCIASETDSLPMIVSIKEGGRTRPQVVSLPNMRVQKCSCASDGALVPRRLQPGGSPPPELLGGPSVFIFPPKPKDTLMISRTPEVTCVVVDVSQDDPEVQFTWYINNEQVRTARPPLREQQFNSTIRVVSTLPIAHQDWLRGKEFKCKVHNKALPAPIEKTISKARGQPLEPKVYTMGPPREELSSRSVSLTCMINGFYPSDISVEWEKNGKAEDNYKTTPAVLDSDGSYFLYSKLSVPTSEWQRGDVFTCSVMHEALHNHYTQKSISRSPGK

[2] = target: T2, 1189 SCR1 (human LEFTY1-human Fc fusion protein) (human); experiment: as above
T2 construct: also called Lefty SCR; Lefty Scr
T2 chain: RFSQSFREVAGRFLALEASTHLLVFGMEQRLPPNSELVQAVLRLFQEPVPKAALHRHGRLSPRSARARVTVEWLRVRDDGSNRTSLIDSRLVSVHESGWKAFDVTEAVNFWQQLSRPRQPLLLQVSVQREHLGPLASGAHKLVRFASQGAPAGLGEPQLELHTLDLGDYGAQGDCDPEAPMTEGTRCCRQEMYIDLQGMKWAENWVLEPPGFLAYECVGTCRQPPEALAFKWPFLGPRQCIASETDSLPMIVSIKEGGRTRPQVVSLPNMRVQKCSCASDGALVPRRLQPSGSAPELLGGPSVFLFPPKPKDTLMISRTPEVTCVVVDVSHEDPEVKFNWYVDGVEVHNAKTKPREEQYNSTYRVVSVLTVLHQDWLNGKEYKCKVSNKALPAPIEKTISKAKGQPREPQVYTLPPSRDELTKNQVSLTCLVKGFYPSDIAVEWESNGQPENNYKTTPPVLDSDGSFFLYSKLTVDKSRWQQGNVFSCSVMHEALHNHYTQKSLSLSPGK

[3] = target: T3, recombinant human LEFTY2 protein (R&D Systems, catalog number 746-LF-025) (human, UniProt O00292 78-366, limits assumed); experiment: as above
T3 construct: also called Lefty R&D; rhLefty2 protein
T3 sequence (looked up): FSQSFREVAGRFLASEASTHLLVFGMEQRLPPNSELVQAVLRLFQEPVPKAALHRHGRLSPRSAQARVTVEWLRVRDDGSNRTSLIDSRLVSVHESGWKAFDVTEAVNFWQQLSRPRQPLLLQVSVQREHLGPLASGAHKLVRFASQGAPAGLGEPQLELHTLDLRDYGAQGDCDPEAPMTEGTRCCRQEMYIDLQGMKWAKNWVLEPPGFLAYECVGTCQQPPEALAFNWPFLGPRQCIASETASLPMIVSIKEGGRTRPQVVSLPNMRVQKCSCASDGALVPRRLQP

[4] = target: B1; experiment: competition ELISA: the peptide is added to the antibody on coated LEFTY proteins
[5] = target: T4, BMPR2 on human breast cancer cells (PDX tumor cells, MDA-MB-231) (human, UniProt Q13873 27-1038); experiment: proximity ligation assay on sorted PDX cells
T4 construct: whole, on cells
T4 sequence (looked up): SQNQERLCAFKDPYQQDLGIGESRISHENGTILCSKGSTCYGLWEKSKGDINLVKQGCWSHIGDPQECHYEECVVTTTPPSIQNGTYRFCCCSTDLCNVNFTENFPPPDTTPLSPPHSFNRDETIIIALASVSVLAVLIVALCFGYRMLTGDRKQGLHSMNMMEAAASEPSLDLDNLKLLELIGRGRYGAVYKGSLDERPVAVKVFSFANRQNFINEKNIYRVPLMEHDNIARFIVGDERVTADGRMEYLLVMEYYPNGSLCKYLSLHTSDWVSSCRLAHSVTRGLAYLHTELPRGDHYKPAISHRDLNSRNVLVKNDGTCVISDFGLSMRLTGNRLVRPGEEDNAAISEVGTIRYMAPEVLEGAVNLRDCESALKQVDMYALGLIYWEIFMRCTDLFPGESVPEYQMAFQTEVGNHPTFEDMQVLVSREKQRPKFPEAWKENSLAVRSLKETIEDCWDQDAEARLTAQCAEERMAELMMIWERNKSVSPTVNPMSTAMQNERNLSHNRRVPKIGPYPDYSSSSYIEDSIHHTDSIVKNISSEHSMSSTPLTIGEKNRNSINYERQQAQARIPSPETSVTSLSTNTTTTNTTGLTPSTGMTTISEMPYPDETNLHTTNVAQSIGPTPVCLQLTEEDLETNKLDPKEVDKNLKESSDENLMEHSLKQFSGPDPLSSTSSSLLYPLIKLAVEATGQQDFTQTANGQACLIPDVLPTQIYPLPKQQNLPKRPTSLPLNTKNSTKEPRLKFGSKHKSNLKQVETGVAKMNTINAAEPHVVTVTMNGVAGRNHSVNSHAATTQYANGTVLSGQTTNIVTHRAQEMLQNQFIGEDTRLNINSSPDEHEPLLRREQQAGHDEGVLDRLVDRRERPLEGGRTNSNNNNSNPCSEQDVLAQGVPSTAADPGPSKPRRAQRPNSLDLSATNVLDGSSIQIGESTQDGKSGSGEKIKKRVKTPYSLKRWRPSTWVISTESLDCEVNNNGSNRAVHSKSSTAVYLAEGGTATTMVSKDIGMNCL

[6] = target: T5, BMPR2 (BMP receptor, in mouse fibroblasts and mouse mammary cells) (mouse, UniProt O35607 27-1038); experiment: proximity ligation assay in fibroblasts
T5 construct: whole, on cells; For the co-IP it came from cell lysate; also called BMP Type II receptor
T5 sequence (looked up): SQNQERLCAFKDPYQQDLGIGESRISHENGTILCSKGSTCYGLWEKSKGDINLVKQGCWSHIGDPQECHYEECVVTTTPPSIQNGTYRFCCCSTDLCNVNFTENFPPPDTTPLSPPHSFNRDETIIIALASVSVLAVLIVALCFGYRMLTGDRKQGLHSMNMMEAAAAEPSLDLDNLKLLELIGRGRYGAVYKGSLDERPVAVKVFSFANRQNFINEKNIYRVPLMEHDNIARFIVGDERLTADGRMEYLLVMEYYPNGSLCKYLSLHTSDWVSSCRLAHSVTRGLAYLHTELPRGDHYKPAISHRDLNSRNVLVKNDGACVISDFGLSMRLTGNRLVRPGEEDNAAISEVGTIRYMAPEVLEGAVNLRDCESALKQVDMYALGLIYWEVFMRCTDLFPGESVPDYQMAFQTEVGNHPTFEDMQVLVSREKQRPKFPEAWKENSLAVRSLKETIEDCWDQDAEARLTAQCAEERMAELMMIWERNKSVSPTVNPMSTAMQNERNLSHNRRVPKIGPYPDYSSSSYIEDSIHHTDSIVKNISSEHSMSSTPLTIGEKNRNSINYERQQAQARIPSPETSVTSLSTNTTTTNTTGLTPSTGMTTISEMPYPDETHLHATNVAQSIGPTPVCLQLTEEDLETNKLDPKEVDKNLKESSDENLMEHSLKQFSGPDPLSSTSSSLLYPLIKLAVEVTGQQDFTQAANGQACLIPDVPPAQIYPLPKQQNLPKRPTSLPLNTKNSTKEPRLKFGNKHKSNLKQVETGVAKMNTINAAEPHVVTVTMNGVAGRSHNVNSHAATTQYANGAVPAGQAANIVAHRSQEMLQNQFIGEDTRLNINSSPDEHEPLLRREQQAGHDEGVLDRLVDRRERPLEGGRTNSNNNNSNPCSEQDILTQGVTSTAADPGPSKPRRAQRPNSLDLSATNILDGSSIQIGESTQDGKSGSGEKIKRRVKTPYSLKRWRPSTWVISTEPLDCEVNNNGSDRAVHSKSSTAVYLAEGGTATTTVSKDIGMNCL

LRP6 = target: T6, LRP6 (UniProt O88572 20-1613, limits assumed); experiment: proximity ligation assay in fibroblasts
T6 construct: whole, on cells
T6 sequence (O88572 20-1613 limits assumed): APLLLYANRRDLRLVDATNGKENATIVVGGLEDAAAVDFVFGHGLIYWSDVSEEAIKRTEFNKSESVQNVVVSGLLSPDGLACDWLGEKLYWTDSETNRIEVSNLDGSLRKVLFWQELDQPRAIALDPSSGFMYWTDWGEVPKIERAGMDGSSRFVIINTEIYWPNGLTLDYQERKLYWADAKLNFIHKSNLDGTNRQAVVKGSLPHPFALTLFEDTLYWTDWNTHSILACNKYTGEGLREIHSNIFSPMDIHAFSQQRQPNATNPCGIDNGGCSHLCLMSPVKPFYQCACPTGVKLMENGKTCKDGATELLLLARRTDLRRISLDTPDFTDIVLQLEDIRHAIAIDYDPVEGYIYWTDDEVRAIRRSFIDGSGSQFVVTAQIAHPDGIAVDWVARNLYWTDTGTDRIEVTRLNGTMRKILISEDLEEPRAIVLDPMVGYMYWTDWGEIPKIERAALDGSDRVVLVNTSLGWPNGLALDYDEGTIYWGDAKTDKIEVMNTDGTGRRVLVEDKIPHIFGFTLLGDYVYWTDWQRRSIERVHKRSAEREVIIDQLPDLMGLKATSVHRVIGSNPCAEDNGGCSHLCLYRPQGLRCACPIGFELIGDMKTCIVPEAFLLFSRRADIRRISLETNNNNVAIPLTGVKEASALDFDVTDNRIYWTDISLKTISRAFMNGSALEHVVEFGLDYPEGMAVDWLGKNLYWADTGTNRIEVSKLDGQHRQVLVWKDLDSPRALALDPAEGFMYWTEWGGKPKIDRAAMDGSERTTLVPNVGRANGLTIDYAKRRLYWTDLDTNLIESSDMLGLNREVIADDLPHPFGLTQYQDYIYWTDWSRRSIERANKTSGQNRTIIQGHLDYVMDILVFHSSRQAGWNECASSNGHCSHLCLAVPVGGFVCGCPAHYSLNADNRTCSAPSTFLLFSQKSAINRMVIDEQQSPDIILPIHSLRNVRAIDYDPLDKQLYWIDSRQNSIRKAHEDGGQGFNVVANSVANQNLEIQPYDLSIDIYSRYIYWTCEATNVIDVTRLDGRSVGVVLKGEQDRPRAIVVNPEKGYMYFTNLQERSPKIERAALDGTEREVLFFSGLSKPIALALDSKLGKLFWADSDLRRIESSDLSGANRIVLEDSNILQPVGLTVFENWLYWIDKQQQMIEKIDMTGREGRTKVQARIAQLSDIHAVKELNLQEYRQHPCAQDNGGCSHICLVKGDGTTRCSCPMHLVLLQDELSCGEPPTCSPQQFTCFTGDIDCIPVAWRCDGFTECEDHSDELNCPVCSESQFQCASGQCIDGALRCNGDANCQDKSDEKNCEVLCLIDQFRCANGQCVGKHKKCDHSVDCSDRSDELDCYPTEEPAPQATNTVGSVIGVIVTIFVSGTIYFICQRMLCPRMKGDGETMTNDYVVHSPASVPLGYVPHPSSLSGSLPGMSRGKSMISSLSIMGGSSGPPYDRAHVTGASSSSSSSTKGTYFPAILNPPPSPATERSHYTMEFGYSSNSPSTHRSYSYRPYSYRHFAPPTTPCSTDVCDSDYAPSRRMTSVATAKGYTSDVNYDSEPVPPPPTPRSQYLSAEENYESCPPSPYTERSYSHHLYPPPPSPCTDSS

Binder: B1
- binding result [1]: binds
- binding result [2]: binds
- binding result [3]: binds

B3: BMP7 in human breast cancer PDX cells (ligand, UniProt P18075 293-431, looked up)
chain: STGSKQRSQNRSKTPKNQEALRMANVAENSSSDQRQACKKHELYVSFRDLGWQDWIIAPEGYAAYYCEGECAFPLNSYMNATNHAIVQTLVHFINPETVPKPCCAPTQLNAISVLYFDDSSNVILKKYRNMVVRACGCH
- binding result [5]: binds

Further lines, results first:

- binding result [4]: binds
B2: Lefty1 peptide PMIVSVKEGGRTRPQVVSLPNMRVQT (peptide)
peptide: PMIVSVKEGGRTRPQVVSLPNMRVQT

- binding result [6]: binds
B4: BMP7 (R&D Systems 5666-BP) (ligand, mouse, UniProt P23359 292-430, looked up)
chain: STGGKQRSQNRSKTPKNQEALRMASVAENSSSDQRQACKKHELYVSFRDLGWQDWIIAPEGYAAYYCEGECAFPLNSYMNATNHAIVQTLVHFINPDTVPKPCCAPTQLNAISVLYFDDSSNVILKKYRNMVVRACGCH

- binding result [6]: binds
- binding result (LRP6): no binding
B5: LEFTY1 (recombinant mouse Lefty1 protein, R&D Systems, catalog number 994-LF) (ligand, UniProt Q64280 78-368, looked up)
chain: FSQNLREVAGRFLVSETSTHLLVFGMEQRLPPNSELVQAVLRLFQEPVPRTALRRQKRLSPHSARARVTIEWLRFRDDGSNRTALIDSRLVSIHESGWKAFDVTEAVNFWQQLSRPRQPLLLQVSVQREHLGPGTWSSHKLVRFAAQGTPDGKGQGEPQLELHTLDLKDYGAQGNCDPEAPVTEGTRCCRQEMYLDLQGMKWAENWILEPPGFLTYECVGSCLQLPESLTSRWPFLGPRQCVASEMTSLPMIVSVKEGGRTRPQVVSLPNMRVQTCSCASDGALIPRRLQP
notes: Added to cells at 200 ng/ml (co-IP, SMAD assays)
